The results in this text go back to patent US20230331820A1 (GlaxoSmithKline, published 2023).

Where two headings read alike, the source gives them in different places.

The target in assay [1] is T1, gI WT: HSV2 gI wildtype ectodomain (HSV2, UniProt P06764 21-256). In words: ELISA, supernatant.
For assay [2], the target named is T1, gI WT: HSV2 gI wildtype ectodomain. In words: ELISA, supernatant. This is another data set of the same source. (In general: In an ELISA, binding on a coated surface is turned into a signal by an enzyme label.)

B1: mAb clone 18 (antibody, V domains shown)
VH: QVQLQQSGAELVRPGTSVKMSCKAAGYTFTNYWIGWVKQRPGHGLEWIGDIYPGGGYTKYNEKFKGKATLTADTSSSTAYMQLSSLTSEDSAIYYCARDGYSPYWGQGTSLTVSS
VL: TIVMTQTPKFLLVSAGDRVTITCKASQSVSNAVAWYQQKPGQSPKLLIYSASNRYTGVPDRFTGSGYGTDFTFTISSVQAEDLAVYFCQQDYTSPFTFGSGTKLEIK
notes: also called mAb 18; mAb18
Regarding B1, the binding result in assay [1] is “no binding”.

B2: mAb clone 5 (antibody, V domains shown)
VH: EVKLVESGGGLVQPGGSLRLSCATSGFTFSDFYMEWVRQPPGKRLEWIAASRNKANDYTTEYSASVKGRFIVSRDTSQSILYLQMNALRAEDTAIYYCARDFLPYYGSPWFAYWGQGTLVTVSA
VL: DIVMTQSPATLSVTPGDRVSLSCRASQSISDYLHWYQQKSHESPRLLIKYASQSISGIPSRFSGSGSGSDFTLSINSVEPEDVGVYYCQNGHSFPYTFGGGTKLEIK
notes: also called mAb 5; GEGI/5IIa
On to B2, for which the binding result in assay [2] is listed as “no binding”.
